Details in all cases: La3+ as metal cofactor; PQQ enzyme; artificial electron acceptor PMS/DCPIP
Substrate in series [1]: CCO
The experiment in a line: PMS-mediated DCPIP reduction, Michaelis-Menten fit. The series is classed as biochemical, Methylorubrum extorquens.

Substrate in series [2]: CO
The experiment in a line: PMS-mediated DCPIP reduction, Michaelis-Menten fit. The series is classed as biochemical, Methylorubrum extorquens.

Substrate in the series “purified protein”: C=O
The experiment in a line: purified protein.

B1: XoxF1 MDH (XoxF1-La) (Methylorubrum extorquens AM1) (protein)
chain: NESVLKGVANPAEQVLQTVDYANTRYSKLDQINASNVKNLQVAWTFSTGVLRGHEGSPLVVGNIMYVHTPFPNIVYALDLDQGAKIVWKYEPKQDPSVIPVMCCDTVNRGLAYADGAILLHQADTTLVSLDAKSGKVNWSVKNGDPSKGETNTATVLPVKDKVIVGISGGEFGVQCHVTAYDLKSGKKVWRGYSIGPDDQLIVDPEKTTSLGKPIGKDSSLKTWEGDQWKTGGGCTWGWFSYDPKLDLMYYGSGNPSTWNPKQRPGDNKWSMTIWARNPDTGMAKWVYQMTPHDEWDFDGINEMILTDQKFDGKDRPLLTHFDRNGFGYTLDRATGEVLVAEKFDPVVNWATKVDLDKGSKTYGRPLVVSKYSTEQNGEDVNSKGICPAALGTKDQQPAAFSPKTGLFYVPTNHVCMDYEPFRVTYTPGQPYVGATLSMYPAPGSHGGMGNFIAWDNLQGKIKWSNPEQFSAWGGALATAGDVVFYGTLEGFLKAVDSKTGKELYKFKTPSGIIGNVMTYEHKGKQHVAVLSGVGGWAGIGLAAGLTDPNAGLGAVGGYAALSSYTNLGGQLTVFSLPNN
For orientation: Km means the substrate concentration at which the rate is half of its maximum. Regarding B1, the results for the Km (in series [1]; in series [2]; in “purified protein”) were 639 µM, 44 µM and 96 µM, respectively.

The values above are taken from article doi:10.1101/329011v1.
